Test results: patent publication US7521540B2, “CYR61 compositions and methods” (Munin Corporation, priority 1996, dated 2009)

B1: Fisp12: Cysteine-rich murine protein, SEQ ID NO:6, mouse ortholog of CTGF (protein, listed as Mus musculus)
chain: MLASVAGPISLALVLLALCTRPATGQDCSAQCQCAAEAAPHCPAGVSLVLDGCGCCRVCAKQLGELCTERDPCDPHKGLFCDFGSPANRKIGVCTAKDGAPCVFGGSVYRSGESFQSSCKYQCTCLDGAVGCVPLCSMDVRLPSPDCPFPRRVKLPGKCCKEWVCDEPKDRTAVGPALAAYRLEDTFGPDPTMMRANCLVQTTEWSACSKTCGMGISTRVTNDNTFCRLEKQSRLCMVRPCEADLEENIKKGKKCIRTPKIAKPVKFELSGCTSVKTYRAKFCGVCTDGRCCTPHRTTTLPVEFKCPDGEIMKKNMMFIKTCACHYNCPGDNDIFESLYYRKMYGDMA
B2: Cyr61: Cysteine-rich ECM signaling protein; murine sequence SEQ ID NO:2, recombinant from Baculovirus-infected Sf9 cells (protein, listed as Mus musculus)
chain: MSSSTFRTLAVAVTLLHLTRLALSTCPAACHCPLEAPKCAPGVGLVRDGCGCCKVCAKQLNEDCSKTQPCDHTKGLECNFGASSTALKGICRAQSEGRPCEYNSRIYQNGESFQPNCKHQCTCIDGAVGCIPLCPQELSLPNLGCPNPRLVKVSGQCCEEWVCDEDSIKDSLDDQDDLLGLDASEVELTRNNELIAIGKGSSLKRLPVFGTEPRVLFNPLHAHGQKCIVQTTSWSQCSKSCGTGISTRVTNDNPECRLVKETRICEVRPCGQPVYSSLKKGKKCSKTKKSPEPVRFTYAGCSSVKKYRPKYCGSCVDGRCCTPLQTRTVKMRFRCEDGEMFSKNVMMIQSCKCNYNCPHPNEASFRLYSLFNDIHKFRD

What was measured:
[1] = tested on: NIH 3T3 fibroblasts; assay: Thymidine incorporation (mitogen potentiation), NIH 3T3; type: cell-based, mouse
Procedure: More specifically, NIH 3T3 fibroblast cells were plated on 24-well plates at 3×10^4 cells/well and grown in DMEM with 10% fetal bovine serum (Intergen Co., Purchase, N.Y.) for 3-4 days and incubated with medium containing 0.2% FBS for the following 48 hours. The following compounds, at the parenthetically noted final concentrations, were then added to the plated cells in fresh DMEM containing 0.2% fbs and [^3H]-thymidine (1 μCi/ml final concentration; ICN Biomedicals, Inc., Costa Mesa, Calif.): bFGF (15 ng/ml), PDGF-BB (30 ng/ml), and murine Cyr61 (0.5-5 μg/ml). These compounds were added to individual plates according to the following pattern: 1) no supplementation; 2) murine Cyr61; 3) bFGF; 4) murine Cyr61 and bFGF; 5) PDGF-BB; and 6) murine Cyr61 and PDGF. After 18-20 hours of incubation, cells were washed with PBS and fixed with 10% trichloroacetic acid. DNA was dissolved in 0.1 N NaOH and thymidine incorporation was determined. […] Without any supplements, 3T3 cells incorporated approximately 1.8×10^4 cpm of [^3H]-thymidine, in the presence or absence of Cyr61. Cells exposed to bFGF alone incorporated about 1.2×10^5 cpm; cells contacting bFGF and murine Cyr61 incorporated 2×10^5 cpm. Cells receiving PDGF-BB incorporated about 1.2×10^5 cpm; and cells exposed to PDGF-BB and murine Cyr61 incorporated approximately 2.4×10^5 cpm.
DNA synthesis for HUVE cells and NIH 3T3 fibroblasts was measured by thymidine incorporation as described previously (Kireeva et al., [1996]) with minor modifications. HUVE cells were grown in 24-well plates to a subconfluent state, serum-starved for 24 hours and treated with F12K medium containing 10% fetal bovine serum (FBS), 1 μCi/ml [^3H]-thymidine and 10 ng/ml basic Fibroblast Growth Factor (bFGF) (Gibco-BRL, Inc.) with various concentrations of Cyr61 and Fisp12 as indicated. NIH 3T3 fibroblasts were grown to subconlfluence, serum-starved for 48 hours, and treated with Minimal Essential Medium (MEM) containing 0.5% FBS, 1 μCi/ml [^3H]-thymidine, bFGF and various concentrations of Cyr61 or Fisp12. Thymidine incorporation into the trichloroacetic acid-insoluble fraction was determined after 24 hour incubation. Logarithmically grown mink lung epithelial cells (Mv1lu, CCL64) were treated with various concentrations of TGF-β1 (Gibco-BRL) and 2 μg/ml of Cyr61 or Fisp12 for 18 hours; [^3H]-thymidine was then added to 1 μCi/ml for 2 hours. Thymidine incorporation was determnined as described above.

[2] = tested on: cornea; assay: Cornea assay for angiogenic factors; type: in vivo, rat; settings: for angiogenic effect in cornea assay: rat, in vivo
Description: Another assay for modulators of angiogenesis is an in vivo assay for assessing the effect of a suspected modulator in the presence of an ECM signaling molecule-related biomaterial, such as Cyr61, on angiogenesis is the Cornea Assay. The Cornea Assay takes advantage of the absence of blood vessels in the cornea, which in the presence of an angiogenic factor, results in the detectable development of capillaries extending from the sclera into the cornea. Friedlander et al., Science 270:1500-1502 (1995). This ingrowth of new blood vessels from the sclera can be microscopically monitored. Further, the visually determined rate of migration can be used to assess changes in the rate of angiogenesis. These cornea assays may be performed using a wide variety of animal models. Preferably, the cornea assays are performed using rats. By way of example, an assay for suspected modulators of Cyr61 using this assay is disclosed. To perform this assay, Cyr61 is initially titrated using primary capillary endothelial cells to determine effective concentrations of Cyr61. Subsequently, Cyr61, in the presence or absence of a suspected modulator, is surgically implanted into the corneas of mammalian laboratory animals, e.g., rabbits or rats. In a preferred embodiment, Cyr61 (or Cyr61 and a suspected modulator) is embedded in a biocompatible matrix, using matrix materials and techniques that are standard in the art. Subsequently, eyes containing implants are visually observed for growth of the readily visible blood vessels within the eye. Control implantations may consist of physiologically balanced buffers embedded in the same type of matrix and implanted into eyes of the same type of laboratory animal receiving the Cyr61-containing implants.
Although rats of various sizes can be used in the cornea assay, a preferred size for the rats is 150-200 g/animal. Anesthesia is induced with Methoxyflurane and is maintained for 40-60 minutes with sodium pentobarbital (50 mg/kg, delivered intraperitoneally). The eyes are gently opened and secured in place by clamping the upper eyelid with a non-traumatic hemostat. Two drops of sterile proparacaine hydrochloride (0.5%) are then placed on each eye as to effect local anesthesia. Using a suitable surgical blade such as a No. 11 Bard Parker blade, an approximately 1.5 mm incision is made approximately 1 mm from the center of the cornea. […] Once the cornea pocket is made, the spatula is removed and the distance between the limbus and base of the pocket is measured to make sure the separation is at least about 1 mm. […]
Following surgery, animals are examined daily for seven days with the aid of a stereomicroscope to check for inflammation and responses. […] During this seven day period, animals are monitored for implant position and corneal exudate. […]

Molecule	enhancement of FGF-induced DNA synthesis ([1]; NIH 3T3 fibroblasts)	mitogenic activity by itself ([1]; any tested assay conditions)	angiogenic effect in cornea assay [2]	[3H]-thymidine incorporation with PDGF-BB ([1]; PDGF-BB 30 ng/ml plus murine Cyr61 0.5-5 μg/ml)	[3H]-thymidine incorporation with bFGF ([1]; bFGF 15 ng/ml plus murine Cyr61 0.5-5 μg/ml)	minimum concentration for enhancement of bFGF- or PDGF-BB-induced thymidine incorporation ([1]; either cell type (NIH 3T3 or HUVE)) [µg/mL]	[3H]-thymidine incorporation, no growth factor ([1]; presence or absence of Cyr61)	eyes showing blood vessel growth after seven days ([2]; FGF 0.15 μM (six animals), Cyr61 1 μg/ml (seven animals))
B1	enhance DNA synthesis induced by fibroblast growth factor	did not exhibit any mitogenic activity	confirm the effect of angiogenic factors					
B2			confirm the effect of angiogenic factors	approximately 2.4×10^5 cpm	2×10^5 cpm	0.5 to 1.0	approximately 1.8×10^4 cpm	all seven
